PMC2680606 (Biochemistry, 2009)

Target: Myc-UbcM2-His6 (mouse, UniProt P52483 1-207)
Test: pull-down

Chain of Myc-UbcM2-His6 (P52483 whole entry): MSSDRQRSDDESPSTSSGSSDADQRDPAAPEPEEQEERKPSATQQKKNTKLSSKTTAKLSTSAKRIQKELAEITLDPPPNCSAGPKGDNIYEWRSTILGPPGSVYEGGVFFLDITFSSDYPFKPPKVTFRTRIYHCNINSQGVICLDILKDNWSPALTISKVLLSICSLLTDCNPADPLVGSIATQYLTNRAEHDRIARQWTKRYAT

B1: ^35S-RCBTB1 fragment: BTB domain and C-terminal 87 residues (domain or fragment, human, UniProt Q8NDN9 360-531, looked up)
chain: LKKEFDSPETADLKFRIDGKYIHVHKAVLKIRCEHFRSMFQSYWNEDMKEVIEIDQFSYPVYRAFLQYLYTDTVDLPPEDAIGLLDLATSYCENRLKKLCQHIIKRGITVENAFSLFSAAVRYDAEDLEEFCFKFCINHLTEVTQTAAFWQMDGPLLKEFIAKASKCGAFKN
modifications: 35S-labelled methionine and cysteine
  fold binding against full-length RCBTB1: 2 fold
